Columns and labels:
[1] = biological target: AtmtSSB2 (Arabidopsis thaliana); assay: SEC
[2] = biological target: AtmtSSB1 (Arabidopsis thaliana); assay: SEC
[3] = biological target: exonuclease deficient AtPolIB (AtPolIB exo-) (Arabidopsis thaliana); assay: MST
[4] = biological target: exonuclease deficient AtPolIB (AtPolIB exo-) (Arabidopsis thaliana); assay: SEC-MALS
[5] = biological target: the molecule itself; assay: SEC
[6] = biological target: T1, AtmtSSB1 (Arabidopsis thaliana, UniProt Q84J78 33-201); assay: fluorescence anisotropy
T1 sequence: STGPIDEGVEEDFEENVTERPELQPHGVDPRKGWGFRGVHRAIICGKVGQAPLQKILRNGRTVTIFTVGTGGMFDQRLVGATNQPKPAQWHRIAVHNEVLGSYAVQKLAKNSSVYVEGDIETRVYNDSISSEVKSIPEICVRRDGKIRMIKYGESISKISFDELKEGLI

[7] = biological target: T1, AtmtSSB1; assay: fluorescence anisotropy; remark: listed apart in the source

**Q.** Which stoichiometry N [1] does the source give for AtmtSSB2 (natural protein) here?
**A.** 4

**Q.** With AtmtSSB1 (natural protein) as the molecule, how does the stoichiometry N [2] read?
**A.** 4

**Q.** And the Kd [3]?
**A.** 1480 nM

**Q.** “exonuclease deficient AtPolIB (AtPolIB exo-) (enzyme)” was tested. Which stoichiometry N [4] did it give?
**A.** 2

B1: AtOSB3 (natural protein, Arabidopsis thaliana, UniProt Q8GWJ4 62-440, looked up)
chain: VATEKESTPPKKIEYKPEISNWINLIGFVEQPVQFGPCSDGKFWAGTVISQRSGSKSSNFWIPIIFEGDLAKIAVQHVKKEDRIHVSGKLFIDSPPPNVTYSQSNVQVMVQNLNFVQAATSTTKTISPPEKEVTSIKKKPARSKKVKVIDEETSNSWKHLIENPKEWLDHRGNKANGLVKPGHPDFKMKVGGLSLWLSTAPDWALLKLEELKFDVLVPKGNIKLNQLKGEESWKDLVQNPDKWLDNRSDKTNVKYPDFKHKETGEALWMTNSPIWVLSKLPPLKKNQERPFMSNKVSQLELDVEVPKGNLKQLKREEIWKNLVENPSKWWDNRLDKRNPKGPDFKHKETGEALWIGDSPTWALSKLPPLKKNQERPVMA
**Q.** With B1 as the molecule, how does the “stoichiometry N” value [5] read?
**A.** 4

B2: AtWhirly2 (natural protein, Arabidopsis thaliana, UniProt Q8VYF7 30-238, looked up)
chain: ASWSNSSTPGRGFPGKDAAKPSGRLFAPYSIFKGKAALSVEPVLPSFTEIDSGNLRIDRRGSLMMTFMPAIGERKYDWEKKQKFALSPTEVGSLISMGSKDSSEFFHDPSMKSSNAGQVRKSLSVKPHADGSGYFISLSVNNSILKTNDYFVVPVTKAEFAVMKTAFSFALPHIMGWNRLTGHVNTEALPSRNVSHLKTEPQLELEWDK
**Q.** For B2, which “stoichiometry N” value [5] is on record?
**A.** 4

**Q.** And the Kd [3]?
**A.** > 250000 nM

**Q.** With TTTTTTTTTTTTTTTTTTTTTTTTTTTTTTTTTTTTTTTTTTTTT (ssDNA) [ssDNA(45), Poly-T 45] as the molecule, how does the Kd [6] read?
**A.** 62.8 ± 3.6 nM

B3: pssDNA-10 (Cy3) (mixed)
DNA 1: AACACTGTGAGCTTAGAGCCCCGGGG
DNA 2: CTAAGCTCACAGTGTT
**Q.** Does B3 bind [7]?
**A.** no binding

B4: AtOSB2 (natural protein, Arabidopsis thaliana, UniProt Q8GXH3 21-371, looked up)
chain: ASEITTGKRITSPQIRLYTAAAVGGKTGNGERKQRAKAPAKTPEAVTPVKPLEIASVTATTENELPRPNEIAYESEVANWVNLIGFVDQPVQFEASSDGKFWAGTVISQRSASDSSGFWIPIIFEGDLAKTAARYVSKDDQIHVSGKLFIDSPPPNMTYAQANVQVLVQNLNFIQPMSPSPSPFMVMSSSEKEESGIKKQPARAKQDIVIDEASDSWNHLIENPKEWWDHRENKVNGLVKPRHPDFKSKDSSFSLWLNKAPNWVLPKLEGLEFDVLVPKARVVKQLKGEESWKDLVQNPDKWWDNRIDKRNAKAPDFKHKETGEALWLNESPTWVLPKLPPVKKKQESIVF
**Q.** How did the “stoichiometry N” value [5] turn out when B4 was run?
**A.** 4

Source: paper PMC6451138 (Nucleic Acids Research, 2019)
